One block for each molecule: values may come before it.
Columns and labels:
[1] = system: TGFβ downstream tonic signaling; test: TGFβ downstream tonic signaling in non-diseased rat BAL; assay type: in vivo
From the text: Indeed, data presented herein support this notion. […] Preferably, TGFβ antagonists for use in the treatment of such conditions exert their inhibitory activities only towards the disease-induced or disease-associated isoform, while preserving the function of the other isoforms that are normally expressed to mediate tonic signaling in the tissue. […] Alternatively or additionally, agents that target and block integrin-dependent activation of TGFβ may be capable of blocking only a subset of integrins responsible for disease-associated TGFβ1 activation, among numerous integrin types that are expressed by various cell types and play a role in the pathogenesis. Furthermore, even where such antagonists may selectively block integrin-mediated activation of the TGFβ1 isoform, it may be ineffective in blocking TGFβ1 activation triggered by other modes, such as protease-dependent activation. Accordingly, the isoform-specific inhibitors of TGFβ1 such as those described herein are aimed to prevent the activation step of TGFβ1 regardless of the particular mode of activation, while maintaining isoform selectivity.

[2] = Stauber et al. 2014, chronic (≥3 months) administration; cited from earlier work
[3] = literature reports (Frazier et al. 2007; Stauber et al. 2014, chronic ≥3 months); cited from earlier work
[4] = in vivo; cited from earlier work
[5] = system: male C57BL/6J mice on CDHFD (liver fibrosis); test: Choline-deficient high fat diet (CDHFD) model of mouse NASH, liver hydroxyproline content; assay type: in vivo; conditions: 15 mg/kg twice a week i.p., weeks 4 through 12 of CDHFD
From the text: The Choline deficient high fat diet (CDHFD) is an established diet-induced model of Non-Alcoholic steatohepatitis (NASH). In this model, male C57BL/6J mice are fed a choline deficient, 0.10% Methionine, high fat diet for 12 weeks. Three to six weeks after the start of the CDHFD, activation of pro-fibrotic processes can be detected through increased expression of α-smooth muscle actin (α-SMA) protein, a marker for activation of hepatic stellate cells, and elevated tissue hydroxyproline content reflecting increased collagen synthesis and deposition (Matsumoto et. al, Int J Exp Pathol. 2013 April; 94(2):93-103).
LTBP complex-specific antibodies were tested for their ability to inhibit and/or reduce the extent of liver fibrosis in mice in the CDHFD model as follows. An outline of the study is shown below in Table 21.
Animals in the test cohorts were on the CDHFD for the duration of the study. A separate cohort of mice (Group 1) were administered a regular chow diet as a study control. Antibodies SR-AB42 and SR-AB31 were administered to mice by intraperitoneal (i.p.) injection beginning at 4 weeks post start of the CDHFD. Animals were dosed at antibody test concentrations 15 mg/kg twice a week (i.e., 30 mg/kg/week) for a test duration of 8 weeks (i.e., weeks 4 through 12). […] Endpoint readout was hydroxyproline content. […]

huLTBP1 proTGFβ1 = huLTBP1 proTGFβ1 (Homo sapiens, UniProt P01137+Q14766); test: Octet (BLI) binding, IgG captured on AHC tips, antigen at 100 nM; conditions: Table 9, cycle 3, IgG1-agly
Outline: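 Antibodies were captured on anti-human Fc biosensors at 1 μg/mL (~7 nM), to a maximum response of 1 nm. Antigen complex was run at a single 100 nM in 1× kinetics buffer, shaking at 1000 rpm. Association was 3 min and dissociation 3 min (5 min in later rounds), with KD from a local, full 1:1 fit.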

huLTBP3 proTGFβ1 = huLTBP3 proTGFβ1 (Homo sapiens, UniProt P01137+Q9NS15); test: as above; conditions: Table 9, cycle 3, IgG1-agly
Outline: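 Antibodies loaded at 1 μg/mL onto anti-human Fc sensors were exposed to each TGFβ1 complex at 100 nM in kinetics buffer. Association ran 3 min; dissociation was 3 min in one protocol and 5 min in another. KD came from a 1:1 fitting model.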

Sequence of huLTBP3 proTGFβ1 (P01137 30-390): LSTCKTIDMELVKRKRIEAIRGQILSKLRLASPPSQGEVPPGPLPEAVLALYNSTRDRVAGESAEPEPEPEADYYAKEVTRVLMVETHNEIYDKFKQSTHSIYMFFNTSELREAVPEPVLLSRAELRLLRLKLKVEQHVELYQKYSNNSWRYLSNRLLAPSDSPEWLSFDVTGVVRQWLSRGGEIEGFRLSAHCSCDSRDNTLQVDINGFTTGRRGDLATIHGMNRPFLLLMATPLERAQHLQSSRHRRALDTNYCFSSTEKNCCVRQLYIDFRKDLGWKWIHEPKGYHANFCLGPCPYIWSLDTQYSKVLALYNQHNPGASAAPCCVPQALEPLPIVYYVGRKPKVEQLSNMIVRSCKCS
Sequence of huLTBP3 proTGFβ1 (Q9NS15 44-1303): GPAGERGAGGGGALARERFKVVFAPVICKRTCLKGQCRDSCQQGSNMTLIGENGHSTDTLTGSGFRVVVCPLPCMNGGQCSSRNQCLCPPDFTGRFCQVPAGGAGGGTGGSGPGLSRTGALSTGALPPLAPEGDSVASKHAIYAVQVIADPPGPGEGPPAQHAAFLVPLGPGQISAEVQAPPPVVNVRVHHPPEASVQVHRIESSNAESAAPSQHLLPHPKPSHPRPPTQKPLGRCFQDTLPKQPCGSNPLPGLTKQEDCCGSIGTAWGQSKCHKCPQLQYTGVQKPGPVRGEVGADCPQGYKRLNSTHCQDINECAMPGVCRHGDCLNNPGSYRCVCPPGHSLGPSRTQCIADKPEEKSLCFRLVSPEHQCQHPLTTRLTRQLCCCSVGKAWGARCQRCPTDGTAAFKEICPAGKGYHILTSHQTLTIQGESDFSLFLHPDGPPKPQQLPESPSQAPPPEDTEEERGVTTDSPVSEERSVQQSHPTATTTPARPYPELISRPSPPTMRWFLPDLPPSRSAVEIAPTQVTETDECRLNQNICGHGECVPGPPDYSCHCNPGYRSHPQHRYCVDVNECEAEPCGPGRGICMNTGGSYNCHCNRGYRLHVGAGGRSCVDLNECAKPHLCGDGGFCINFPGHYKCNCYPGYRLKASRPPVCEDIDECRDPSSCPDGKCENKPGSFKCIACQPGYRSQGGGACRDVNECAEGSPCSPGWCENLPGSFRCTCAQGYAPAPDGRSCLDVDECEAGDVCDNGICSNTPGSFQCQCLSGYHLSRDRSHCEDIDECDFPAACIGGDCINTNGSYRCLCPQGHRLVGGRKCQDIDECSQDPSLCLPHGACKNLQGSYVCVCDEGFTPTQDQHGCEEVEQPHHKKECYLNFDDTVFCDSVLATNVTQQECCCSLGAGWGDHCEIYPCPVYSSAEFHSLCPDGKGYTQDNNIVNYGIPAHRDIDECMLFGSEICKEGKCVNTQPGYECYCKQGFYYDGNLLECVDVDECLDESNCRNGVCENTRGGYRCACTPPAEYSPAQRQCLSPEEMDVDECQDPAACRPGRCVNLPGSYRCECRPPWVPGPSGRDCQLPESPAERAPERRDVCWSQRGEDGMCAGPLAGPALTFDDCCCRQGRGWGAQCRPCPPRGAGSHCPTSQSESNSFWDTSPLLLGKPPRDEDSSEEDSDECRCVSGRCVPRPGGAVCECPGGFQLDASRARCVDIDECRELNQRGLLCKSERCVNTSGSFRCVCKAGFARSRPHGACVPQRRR
Sequence of huLTBP1 proTGFβ1 (P01137 30-390): as the sequence (P01137 30-390) above
Sequence of huLTBP1 proTGFβ1 (Q14766 347-1721 limits assumed): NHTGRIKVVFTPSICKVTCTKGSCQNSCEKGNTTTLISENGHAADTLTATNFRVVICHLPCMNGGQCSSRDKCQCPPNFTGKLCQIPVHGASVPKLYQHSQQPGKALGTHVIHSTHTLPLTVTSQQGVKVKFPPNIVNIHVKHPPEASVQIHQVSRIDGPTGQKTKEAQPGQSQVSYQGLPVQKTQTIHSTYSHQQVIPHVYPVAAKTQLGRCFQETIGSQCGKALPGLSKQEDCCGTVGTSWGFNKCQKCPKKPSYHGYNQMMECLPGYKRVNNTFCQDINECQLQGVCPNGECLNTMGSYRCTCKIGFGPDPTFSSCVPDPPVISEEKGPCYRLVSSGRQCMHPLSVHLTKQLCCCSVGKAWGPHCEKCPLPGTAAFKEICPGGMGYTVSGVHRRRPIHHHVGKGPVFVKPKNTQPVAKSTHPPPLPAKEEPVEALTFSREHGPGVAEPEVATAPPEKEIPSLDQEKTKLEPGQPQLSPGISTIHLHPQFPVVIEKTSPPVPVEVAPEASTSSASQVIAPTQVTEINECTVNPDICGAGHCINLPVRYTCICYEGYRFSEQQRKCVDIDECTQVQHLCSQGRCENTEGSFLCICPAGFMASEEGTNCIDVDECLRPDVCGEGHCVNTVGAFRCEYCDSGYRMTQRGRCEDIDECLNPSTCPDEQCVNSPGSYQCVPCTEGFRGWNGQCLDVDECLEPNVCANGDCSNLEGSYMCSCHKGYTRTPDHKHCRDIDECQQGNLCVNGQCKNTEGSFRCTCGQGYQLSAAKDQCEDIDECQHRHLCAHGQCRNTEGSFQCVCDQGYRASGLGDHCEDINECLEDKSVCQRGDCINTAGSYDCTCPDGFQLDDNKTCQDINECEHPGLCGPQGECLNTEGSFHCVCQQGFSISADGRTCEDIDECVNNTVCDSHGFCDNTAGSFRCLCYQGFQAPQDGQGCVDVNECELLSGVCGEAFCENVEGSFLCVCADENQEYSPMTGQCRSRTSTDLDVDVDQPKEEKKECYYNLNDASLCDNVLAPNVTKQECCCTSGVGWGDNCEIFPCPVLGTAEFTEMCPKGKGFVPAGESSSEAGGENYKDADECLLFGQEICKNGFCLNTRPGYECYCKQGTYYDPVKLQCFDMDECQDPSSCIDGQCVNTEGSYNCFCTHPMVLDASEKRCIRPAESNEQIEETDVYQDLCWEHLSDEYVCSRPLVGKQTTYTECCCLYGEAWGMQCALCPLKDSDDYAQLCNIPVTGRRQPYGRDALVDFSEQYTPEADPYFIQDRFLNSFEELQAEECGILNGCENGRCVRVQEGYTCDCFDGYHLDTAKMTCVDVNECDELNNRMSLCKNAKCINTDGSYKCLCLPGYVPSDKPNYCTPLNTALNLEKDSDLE

Molecule: c1ccc(-c2nn3c(c2-c2ccnc4cc(OCCN5CCOCC5)ccc24)CCC3)nc1 [LY2109761]
TGFβ downstream tonic signaling [1]: inhibit TGFβ downstream tonic signaling in non-diseased rat BAL

Molecule: Cc1cccc(-c2nn3c(c2-c2ccnc4ccc(C(N)=O)cc24)CCC3)n1 [LY2157299]
Toxicity in dogs [2]: caused multiple organ toxicities involving the cardiovascular, gastrointestinal, immune, bone/cartilage, reproductive, and renal systems
Toxicity in rats [3]: caused multiple organ toxicities involving the cardiovascular, gastrointestinal, immune, bone/cartilage, reproductive, and renal systems

Molecule: GC1008: a “pan” TGFβ antibody capable of neutralizing all human isoforms of TGFβ
Exposure, DN Cmax, Human [4]: DN Cmax ~(350 ng/mL) (ng/mL) mg
Exposure, Half-life, Human [4]: Half-life: 21.7 d

Hu LTBP1-proTGFβ1 Kon (huLTBP1 proTGFβ1; 1:1 fit): 240000 M⁻¹ s⁻¹
Hu LTBP1-proTGFβ1 Koff (huLTBP1 proTGFβ1; 5-minute dissociation): 9.89e-05 s⁻¹
Hu LTBP3-proTGFβ1 Kon (huLTBP3 proTGFβ1; 1:1 fit): 308000 M⁻¹ s⁻¹
Hu LTBP3-proTGFβ1 Koff (huLTBP3 proTGFβ1; 5-minute dissociation): 6.81e-05 s⁻¹
B1: SR-AB31: cycle 3 light chain-optimized antibody, lineage SR-AB22; CDRs SEQ ID NO: 124-129 (antibody, V domains shown)
VH: QVQLVESGGGVVQPGRSLRLSCAASGFTFRSYVMHWVRQAPGKGLEWVAVISHEGSLKYYADSVKGRFTISRDNSKNTLYLQMNSLRAEDTAVYYCAVPRIAARRGGFGYWGQGTLVTVSS
VL: NFMLTQPHSVSESPGKTVTISCTRSSGNIDNNYVQWYQQRPGSSPTTVIYEDNQRPSGVPDRFSGSIDSSSNSASLTISGLKTEDEADYYCQSYDFNNQGVVFGGGTKLTVL
Hydroxyproline (HYP) in liver tissue [5]: inhibited the increase in HYP

From US11214614B2, “LTBP complex-specific inhibitors of TGFβ and uses thereof” (Scholar Rock, Inc., priority 2019, dated 2022)
